Laboratory results from US20160159910A1 (Genentech, published 2016).
Changes are numbered by the printed parent chain.

T1: cynomolgus monkey B7-H4 (cynomolgus monkey, UniProt Q7Z7D3 29-282 (human entry))
T1 construct: On stably transfected 293 cells; also called cyno B7-H4; recombinant cynomolgus monkey B7-H4
T1 chain: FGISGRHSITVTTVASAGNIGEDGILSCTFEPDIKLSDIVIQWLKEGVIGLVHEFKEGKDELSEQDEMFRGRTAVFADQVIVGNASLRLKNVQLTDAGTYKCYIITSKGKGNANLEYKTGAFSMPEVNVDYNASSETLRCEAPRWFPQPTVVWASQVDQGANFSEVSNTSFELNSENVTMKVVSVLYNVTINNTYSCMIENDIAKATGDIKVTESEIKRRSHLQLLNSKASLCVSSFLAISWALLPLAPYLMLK

T2: mouse B7-H4 (mouse, UniProt Q7TSP5 29-283)
T2 construct: On stably transfected 293 cells; also called muB7-H4; recombinant mouse B7-H4
T2 sequence: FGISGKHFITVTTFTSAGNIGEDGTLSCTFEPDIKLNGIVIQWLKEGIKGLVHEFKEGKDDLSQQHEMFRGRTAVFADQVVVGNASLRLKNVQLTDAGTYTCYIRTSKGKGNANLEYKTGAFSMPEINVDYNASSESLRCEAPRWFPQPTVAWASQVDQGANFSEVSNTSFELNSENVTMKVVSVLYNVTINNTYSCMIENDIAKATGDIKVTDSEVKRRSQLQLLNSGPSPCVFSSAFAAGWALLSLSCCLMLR

T3: human B7-H4 (human, UniProt Q7Z7D3 29-282)
T3 construct: On stably transfected 293 cells (recombinant) or on MX-1 / SKBR3 tumor cells (endogenous); the cell is named under assay; also called huB7-H4; hB7-H4
T3 sequence: T1 chain with I49L, L238F, A248S

T4: soluble B7-H4 (Ig-V; G28-V157)-Fc fusion protein (human, UniProt Q7Z7D3 28-157)
T4 construct: Engineered soluble protein; also called B7-H4-(Ig-V)-hIgG1 Fc fusion protein; soluble B7-H4 IgV-Fc fusion protein; not shown: human IgG1 Fc
T4 sequence: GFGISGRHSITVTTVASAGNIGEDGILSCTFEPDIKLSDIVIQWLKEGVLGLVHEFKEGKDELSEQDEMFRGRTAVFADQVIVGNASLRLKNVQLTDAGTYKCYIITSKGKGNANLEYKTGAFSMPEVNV

T5: rat B7-H4 (rat, UniProt Q501W4 29-282)
T5 construct: On stably transfected 293 cells; also called recombinant rat B7-H4
T5 sequence: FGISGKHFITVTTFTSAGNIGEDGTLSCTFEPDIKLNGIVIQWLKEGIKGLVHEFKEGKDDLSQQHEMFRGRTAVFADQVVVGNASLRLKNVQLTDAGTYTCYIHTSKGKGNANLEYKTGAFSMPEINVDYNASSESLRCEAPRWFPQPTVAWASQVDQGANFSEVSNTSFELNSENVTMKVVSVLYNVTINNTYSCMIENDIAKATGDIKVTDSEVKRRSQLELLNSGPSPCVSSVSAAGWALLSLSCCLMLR

T6: human B7-H4 S114A glycosylation mutant (human, UniProt Q7Z7D3 29-282)
T6 construct: Full-length human B7-H4 membrane construct with S114 changed to alanine to prevent N-linked glycosylation at N112-S114; transiently expressed on 293 cells; also called mutated S114A human B7-H4; recombinant human B7-H4 S114A
T6 sequence: T1 chain with I49L, S86A, L238F, A248S

B1: chimeric antibody ch22C10 (antibody, human IgG1, V domains shown)
VH: QVQLQQPGAELVKPGTSVKLSCKASGYTFTNFWIHWVIQRPGQGLEWIGEIDPSDSYTNYNQKFKGKATLTVDKSSNTAYMQLSSLTSEDSAVYYCSREITTVDYWGQGTTLTVSS
VL: QIVLTQSPTIMSASPGEKVTLTCSATSSISYMHWYQQKPGTSPKGWIYDTSKLAHGVPARFSGSGSGTSYSLTISSMEAEDAATYYCHQRRSYPFTFGSGTKLEIK
notes: also called ch2210; parental 22C10 antibody
B2: humanized 22C10.v2.8 (antibody, V domains shown)
VH: EVQLVQSGAEVKKPGASVKVSCKASGYTFTNFWIHWVRQAPGQGLEWIGEIDPSDSYTNYNQKFKGRVTITRDTSTSTAYLELSSLRSEDTAVYYCAREITTVDYWGQGTLVTVSS
VL: DIQMTQSPSSLSASVGDRVTITCSATSSISYMHWYQQKPGKAPKGLIYDTSKLAHGVPSRFSGSGSGTDFTLTISSLQPEDFATYYCHQRRSYPFTFGQGTKVEIK
notes: Assessed in the form of an IgG produced in 293 cells; also called hu22C10.v2.8; h22C10.v2.8
B3: chimeric antibody ch32D6 (antibody, human IgG1, V domains shown)
VH: EVQLQQSGPDLVKPGASVKISCKASGYSFTGYYIHWMKQSHGKSLEWIGRVNPNNGDPIYNQKFRGKAILTVDQSSNTAYMELRSLTSEASAVYYCARVLFYYGSPFAYWGQGTLVTVSA
VL: DIVMTQSPSSLIVTAGEKVTMSCRSSQSLFDSGSQRNYLTWFHQKPGRPPKLLIYWASTRESGVPDRFTGSGSGTDFTLTISSVQTEDLAVYFCQNDYSFPFTFGSGTKLEEK
notes: also called antibody 32D6
B4: humanized 1D11.v1.7 (antibody, V domains shown)
VH: EVQLVQSGAEVKKPGASVKVSCKASGYTFTSYWIGWVRQAPGQGLEWIGDIYPGGGYTNYNEKFKGRATLTRDTSTSTAYLELSSLRSEDTAVYYCARLDGSSYRGAMDSWGQGTLVTVSS
VL: DIQMTQSPSSLSASVGDRVTITCKASQGFNKYVAWYQQKPGKAPKLLIYYTSTLQPGVPSRFSGSGSGRDYTLTISSLQPEDFATYYCLQYGNLLYAFGQGTKVEIKR
notes: also called hu1D11.v1.7; h1D11.v1.7
B5: humanized 1D11.v1.8 (antibody, V domains shown)
VH: B4 VH with L70I
VL: B4 VL
notes: also called hu1D11.v1.8; h1D11.v1.8

Legend:
cynomolgus monkey B7-H4 [1] = target: T1, cynomolgus monkey B7-H4; assay: FACS titration on 293 cells expressing recombinant cynomolgus B7-H4 (panel '293-cyno B7-H4', upper block), geometric mean fluorescence
Method: (§1) The fluorescent signal was acquired with a BD FACS Calibur and EC₅₀ values were determined with the Graph Pad program Prism 4.

mouse B7-H4 [2] = target: T2, mouse B7-H4; assay: FACS titration on 293 cells expressing recombinant mouse B7-H4 (panel '293-mouse B7-H4', upper block), geometric mean fluorescence
Method: as §1

human B7-H4 [3] = target: T3, human B7-H4; assay: FACS titration on 293 cells expressing recombinant human B7-H4 (panel '293-human B7-H4', upper block), Dylight-650 goat anti-human IgG, geometric mean fluorescence
Method: as §1

[4] = target: T4, soluble B7-H4 (Ig-V; G28-V157)-Fc …; assay: FACS competition: soluble B7-H4 (Ig-V)-Fc against dye-labelled 22C10 on 293 cells expressing human B7-H4
rat B7-H4 [5] = target: T5, rat B7-H4; assay: Scatchard analysis, 125I-antibody radioligand cell binding on stably transfected 293 cells
Method: (§2) Competition assay mixtures of 50 μL volume containing a fixed concentration of [I¹²⁵] labeled antibody and decreasing concentrations of serially diluted, unlabeled antibody were placed into 96-well plates. […] Cells were detached from the flask using Sigma Cell Dissociation Solution and were washed with binding buffer, which consisted of Dulbecco's Modified Eagle Medium (DMEM) with 1% bovine serum albumin (BSA), […] and 0.1% sodium azide. The washed cells were added to the 96 well plates at a density of 100,000 cells in 0.2 mL of binding buffer. The final concentration of the [I¹²⁵] labeled antibody in each well was ˜250 pM. The final concentration of the unlabeled antibody in the competition assay ranged from 1000 nM through ten 2-fold dilution steps to a 0 nM buffer-only assay. Competition assays were carried out in triplicate. Competition assays were incubated for 2 hours at room temperature. After the 2-hour incubation, the competition assays were transferred to a Millipore Multiscreen filter plate (Billerica, Mass.) and washed 4 times with binding buffer to separate the free from bound [I¹²⁵] labeled antibody. The filters were counted on a Wallac Wizard 1470 gamma counter (PerkinElmer Life and Analytical Sciences Inc.; Wellesley, Mass.). The binding data was evaluated using NewLigand software (Genentech), which uses the fitting algorithm of Munson and Robard to determine the binding affinity of the antibody (Munson and Robard 1980).

mouse B7-H4 [6] = target: T2, mouse B7-H4; assay: as above
Method: as §2

cynomolgus monkey B7-H4 [7] = target: T1, cynomolgus monkey B7-H4; assay: as above
Method: as §2

human B7-H4 [8] = target: T3, human B7-H4; assay: as above
Method: as §2

human B7-H4 [9] = target: T3, human B7-H4; assay: FACS titration on MX-1 tumor cells, endogenous human B7-H4 (panel 'MX-1 tumor cell line', upper block), geometric mean fluorescence
Method: as §1

[10] = target: T6, human B7-H4 S114A glycosylation mutant; assay: FACS on 293 cells transfected with S114A human B7-H4 (glycosylation independence)
human B7-H4 [11] = target: T3, human B7-H4; assay: Scatchard analysis, 125I-antibody radioligand cell binding on MX-1 tumor cells
Method: as §2

human B7-H4 [12] = target: T3, human B7-H4; assay: Scatchard analysis on MX-1 cells; the table puts the affinity of 10 nM beside the parent antibody's 4.9 nM
Method: as §2, with “After the 2-hour incubation, the competition assays were transferred to a Millipore Multiscreen filter plate (Billerica, Mass.) and washed 4 times with binding buffer to separate the free from bound [I¹²⁵] labeled antibody.” left out

rat B7-H4 [13] = target: T5, rat B7-H4; assay: Scatchard on stable cell line expressing recombinant B7-H4 (footnote 1 of the table)
Method: Competition assay mixtures of 50 μL volume containing a fixed concentration of [I¹²⁵] labeled antibody and decreasing concentrations of serially diluted, unlabeled antibody were placed into 96-well plates. […] Cells were detached from the flask using Sigma Cell Dissociation Solution and were washed with binding buffer, which consisted of Dulbecco's Modified Eagle Medium (DMEM) with 1% bovine serum albumin (BSA), 300 mM human IgG and 0.1% sodium azide. The washed cells were added to the 96 well plates at a density of 100,000 cells in 0.2 mL of binding buffer. The final concentration of the [I¹²⁵] labeled antibody in each well was ˜250 pM. The final concentration of the unlabeled antibody in the competition assay ranged from 1000 nM through ten 2-fold dilution steps to a 0 nM buffer-only assay. Competition assays were carried out in triplicate. Competition assays were incubated for 2 hours at room temperature.

cynomolgus monkey B7-H4 [14] = target: T1, cynomolgus monkey B7-H4; assay: FACS titration on 293 cells expressing recombinant cynomolgus B7-H4 (panel '293-cyno B7-H4', lower block), geometric mean fluorescence
Method: as §1

human B7-H4 [15] = target: T3, human B7-H4; assay: Scatchard analysis on MX-1 cells; the table puts the affinity of 8.3 nM beside the parent antibody's 7.8 nM
Method: as §2, with “After the 2-hour incubation, the competition assays were transferred to a Millipore Multiscreen filter plate (Billerica, Mass.) and washed 4 times with binding buffer to separate the free from bound [I¹²⁵] labeled antibody.” left out

mouse B7-H4 [16] = target: T2, mouse B7-H4; assay: FACS titration on 293 cells expressing recombinant mouse B7-H4 (panel '293-mouse B7-H4', lower block), geometric mean fluorescence
Method: as §1

human B7-H4 [17] = target: T3, human B7-H4; assay: FACS titration on 293 cells expressing recombinant human B7-H4 (panel '293-human B7-H4', lower block), Dylight-650 goat anti-human IgG, geometric mean fluorescence
Method: as §1

human B7-H4 [18] = target: T3, human B7-H4; assay: FACS titration on MX-1 tumor cells, endogenous human B7-H4 (panel 'MX-1 tumor cell line', lower block), geometric mean fluorescence
Method: as §1

human B7-H4 [19] = target: T3, human B7-H4; assay: Scatchard analysis on MX-1 cells; the table puts the affinity of 8.7 nM beside the parent antibody's 7.8 nM
Method: as §2, with “After the 2-hour incubation, the competition assays were transferred to a Millipore Multiscreen filter plate (Billerica, Mass.) and washed 4 times with binding buffer to separate the free from bound [I¹²⁵] labeled antibody.” left out

Row | Binder | EC50 (cynomolgus monkey B7-H4 [1]) | EC50 (mouse B7-H4 [2]) | EC50 (human B7-H4 [3]) | Kd (cynomolgus monkey B7-H4 [7]) | Kd (human B7-H4 [8]) | EC50 (human B7-H4 [9]) | fold binding over the isotype control [10] | Kd (human B7-H4 [11]) | EC50 (cynomolgus monkey B7-H4 [14]) | EC50 (mouse B7-H4 [16]) | EC50 (human B7-H4 [17]) | EC50 (human B7-H4 [18]) | also measured
1 | B1 | 0.41 µg/mL | 0.66 µg/mL | 1.2 µg/mL | 4.6 nM | 6.6 nM | 0.35 µg/mL | 100 fold | 4.9 nM | – | – | – | – | binding result [4]: no binding; Kd (rat B7-H4 [5]): 5.7 nM; Kd (mouse B7-H4 [6]): 18.3 nM
2 | B2 | 1.19 µg/mL | 0.97 µg/mL | 1.44 µg/mL | – | – | 0.73 µg/mL | – | 10 nM | – | – | – | – | Fold to Parent mAb (human B7-H4 [12]): 0.49
3 | B3 | – | – | – | 3.1 nM | 4.8 nM | – | 100 fold | – | – | – | – | – | binding result (rat B7-H4 [13]): no binding
4 | B4 | – | – | – | – | – | – | – | 8.3 nM | 0.68 µg/mL | 0.45 µg/mL | 0.66 µg/mL | 0.34 µg/mL | Fold to Parent mAb (human B7-H4 [15]): 0.94
5 | B5 | – | – | – | – | – | – | – | 8.7 nM | 0.18 µg/mL | 1.32 µg/mL | 2.29 µg/mL | 0.53 µg/mL | Fold to Parent mAb (human B7-H4 [19]): 0.89
